Reference: paper PMC7659708, “Genetically encoded live-cell sensor for tyrosinated microtubules” (The Journal of Cell Biology, 2020)
Several values for one entry are separate records, joined by “and”; a condition that tells them apart may be missing. Equal entries are not always repeated. Where no end group is shown, it is not given here. The star is where a group is joined. Biotin = O=C1N[C@H]2[C@H](CS[C@H]2CCCCC(=O)*)N1

T1: 13C-15N isotope-labeled A1aY1 protein (thrombin-cleaved) (13C, 15N isotope-labeled)
T1 construct: A1aY1, an SSO7D mutant selected from a combinatorial yeast display library; source: E. coli Rosetta (DE3) grown in M9 media, purified (Ni-NTA, SEC, thrombin cleavage, SEC); not shown: His6, N-terminal, cleaved
T1 chain: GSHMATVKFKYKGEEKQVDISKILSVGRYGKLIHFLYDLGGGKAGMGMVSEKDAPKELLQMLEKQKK

T2: biotin-TUBA1A 440-451 (human)
T2 construct: C-terminal tail of human alpha-tubulin TUBA1A, amino acids 440-451, tyrosinated; source: synthetic peptide (Thermo Fisher Scientific)
T2 peptide: Biotin-VEGEGEEEGEEY

T3: biotin-TUBA1A 440-450 (human)
T3 construct: C-terminal tail of human alpha-tubulin TUBA1A, amino acids 440-450, without the terminal tyrosine (detyrosinated); source: synthetic peptide (Thermo Fisher Scientific)
T3 peptide: Biotin-VEGEGEEEGEE

T4: biotin-TUBA1A 440-451-[E]445 (human)
T4 construct: C-terminal tail of human alpha-tubulin TUBA1A, amino acids 440-451, printed VEGEG[E]EEGEEY with [E] the monoglutamylated residue 445; source: synthetic peptide (Thermo Fisher Scientific)
T4 peptide: Biotin-VEGEGE(Glu)EEGEEY

T5: biotin-Tub84B 438-450 (Drosophila)
T5 construct: C-terminal tail of Drosophila alpha-tubulin Tub84B; they would span 439-450 if the last residue is 450; source: synthetic peptide (LifeTein)
T5 peptide: Biotin-SGDGEGEGAEEY

T6: biotin-Tba-1 437-449 (C. elegans)
T6 construct: C-terminal tail of C. elegans alpha-tubulin Tba-1, amino acids 437-449; source: synthetic peptide (LifeTein)
T6 peptide: Biotin-SNEGGNEEEGEEY


Experiments:
Settings in all cases: both partners purified
[1] = biological target: T1, 13C-15N isotope-labeled A1aY1 protein …; assay: NMR titration; 1H-15N HSQC of 13C,15N-labeled A1aY1 with nonbiotinylated peptides added at 0.5 to 7 equivalents (Hs_TUBA1A) or 1 to 4 equivalents (Hs_TUBA1A-ΔY); 25°C
[2] = biological target: T2, biotin-TUBA1A 440-451; assay: SPR; steady-state binding assay, Biacore-T200; biotinylated peptides immobilized on a streptavidin (SA) sensor chip at 100-300 response units; A1aY1 titrated from 0.031 to 200 µM; 1x HBS-P+ (10 mM Hepes, 150 mM NaCl, 0.05% surfactant P20), 30 µl/min; 1:1 binding considered, one site total fit
[3] = biological target: T3, biotin-TUBA1A 440-450; assay: as above
[4] = biological target: T4, biotin-TUBA1A 440-451-[E]445; assay: as above
[5] = biological target: T5, biotin-Tub84B 438-450; assay: as above
[6] = biological target: T6, biotin-Tba-1 437-449; assay: as above

Row | Binder | binding result [1] | Kd [2] [µM] | Kd [3] [µM] | Kd [4] [µM] | Kd [5] | Kd [6] [µM]
1 | VEGEGEEEGEEY (C-terminal tail of human alpha-tubulin TUBA1A, amino acids 440-451, tyrosinated, without biotin; also called tyrosinated peptide; α-tubulin CTT peptide; source: synthetic peptide (LifeTein)) [nonbiotinylated Hs_TUBA1A peptide] | binds | – | – | – | – | –
2 | A1aY1 binder (designed binder, A1aY1, an SSO7D mutant selected from a combinatorial yeast display library; (His6, thrombin site, A1aY1); Protein used in the SPR steady-state titrations; The results say 'without any tags'; the methods describe the stored protein as 9.3 kD, which is the size with His6 and thrombin site, and tell of thrombin cleavage only for the NMR sample; also called tyrosination sensor; source: E. coli …) MATVKFKYKGEEKQVDISKILSVGRYGKLIHFLYDLGGGKAGMGMVSEKDAPKELLQMLEKQKK | – | 1.6 ± 0.3 | > 60 | 13.6 ± 4.5 | 4.1 µM and 4 µM | 1 ± 0.2
